Measurements taken from patent US20230203178A1 (SICHUAN KELUN BIOTECH BIOPHARMACEUTICAL, published 2023).

Biological target: T1, human CD19 (antigen) (human, UniProt P15391 20-291, limits assumed)
T1 sequence (looked up): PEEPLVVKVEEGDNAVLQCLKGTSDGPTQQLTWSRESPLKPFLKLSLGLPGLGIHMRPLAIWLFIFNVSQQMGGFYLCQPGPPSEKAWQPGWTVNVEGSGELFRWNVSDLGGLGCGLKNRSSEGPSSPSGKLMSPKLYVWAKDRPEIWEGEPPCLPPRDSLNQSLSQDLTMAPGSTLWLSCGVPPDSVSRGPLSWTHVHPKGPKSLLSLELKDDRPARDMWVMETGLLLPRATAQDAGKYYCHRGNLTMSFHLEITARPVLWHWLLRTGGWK
Assay: affinity determination, method not stated; humanized monoclonal antibody

- Kd: 28.4 nM
B1: humanized anti-CD19 antibody (H-CD19) (antibody, V domains shown)
VH: QVTLRESGPALVKPTQTLTLTCTFSGVSLPDYGVSWIRQPPGKALEWLAVIWGSETTYYNSALKSRLTISKDTSKNQVVLTMTNMDPVDTATYYCAKHYYYGGSYAMDYWGQGTTVTVSS
VL: EIVLTQSPATLSLSPGERATLSCRASQDISKYLNWYQQKPGQAPRLLIYHTSRLHSGIPDRFSGSGSGTDFTLTISRLEPEDIAVYYCQQGNTLPYTFGQGTKLEI
notes: also called humanized monoclonal antibody
